Source: patent publication US20220348635A1, “COMPOSITIONS AND METHODS FOR NEUROLOGICAL DISEASES” (Coda Biotherapeutics, Inc., priority 2019, published 2022)

What was measured:
Format in all cases: cell-based
[1] = YFP quench plate reader assay, response to acetylcholine; conditions: LX293T YFP reporter cells
How it was run: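 Transiently transfected LX293T YFP-reporter cells; 30 min 37° C in 1×ECS (pH 7.2). Baseline 17 sec, ligand added (2× stock in ECS-NaI), fluorescence every 1.3 sec over 2 min. Dose-dependent % quench; […].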

[2] = High throughput electrophysiology in HEK293T cells, acetylcholine
Protocol: To confirm the EC50s determined by plate reader as well as develop a better understanding of maximum current flow, the engineered receptors were subjected to high throughput electrophysiology system, as described below. For HEK293T studies, cDNAs encoding ion channels were cloned into pcDNA3.1 using standard recombination techniques. HEK293T cells from Clontech (Lenti-X™ 293T Cell Line) were cultured in DMEM supplemented with 10% FBS and 1% Pen/Strep to 40-50% confluence using standard cell culture protocols, transfected with ion channel plasmids at a concentration of 18 μg per 15 cm dish using Fugene 6, and grown for an additional 24 hours. Cells were then assayed on a electrophysiological system (IonFluxHT and/or Mercury, Fluxion Biosciences) in which dose-response relationships may be assessed through a microfluidics-based platform for establishing whole cell configurations. […] Data were then analyzed off-line using custom Python scripts to convert data to .csv format, re-plot traces, and apply QC measurements to reject unstable recordings (i.e. thresholding based on access resistance and/or standard deviation in baseline, as well as artifact rejection). Peak currents were then calculated and population data were fit using a 4-parameter logistic equation as described by the Hill Equation. […]

[3] = Manual patch clamp, HEK cell line, acetylcholine; conditions: HEK293 cells and cultured rat DRG sensory neurons
Protocol: FIG. 2A-FIG. 2B show the concentration-response curves of CR-11 (Chemogenic receptor-11, an engineered receptor comprising an amino acid sequence having the amino acid substitutions of Y115D and L131Q in SEQ ID NO: 33) expressed in HEK 293 cells to acetylcholine as well as to non-native ligands RG-3487 (SA-2, Synthetic Agonist-2). The responses were evaluated using manual patch clamp electrophysiology. Currents were normalized to unity for the maximal response. The continuous line through the data points is the best fit obtained with the Hill equation, and EC50s for each ligand are estimated from the concentration-response curves.
Using whole cell manual patch clamp electrophysiology in HEK293 cells and rat DRG neurons, the EC50 of the various engineered receptors disclosed herein to Ach and non-native ligands was measured. The rheobase shift was also measured in rat DRG neurons, which reflects the efficacy of the receptors. To calculate the rheobase, first, the amount of current that can produce an action potential was determined. Then the ligand was added, followed by a step wise increase in the current injected up to 700 pA. […] The EC50 was calculated using the Hill equation with peak current measurements from escalating doses of ligand.

[4] = High throughput electrophysiology in HEK293T cells, AZD-0328; conditions: HEK293T cells, held at −60 mV
How it was run: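 Engineered receptors transiently expressed in HEK293T cells, recorded 24 h post-transfection by automated whole-cell patch clamp at −60 mV, CsCl intracellular, pH 7.2 extracellular buffer. Progressive agonist doses applied for 1 s; peak currents fit to a 4-parameter Hill equation for EC50.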

B1: Y115D, L131Q in SEQ ID NO: 33: CR-11 (Chemogenic receptor-11): SEQ ID NO: 33 with substitutions Y115D and L131Q (protein)
chain: MRCSPGGVWLALAASLLHVSLQGEFQRKLYKELVKNYNPLERPVANDSQPLTVYFSLSLLQIMDVDEKNQVLTTNIWLQMSWTDHYLQWNVSEYPGVKTVRFPDGQIWKPDILLDNSADERFDATFHTNVQVNSSGHCQYLPPGIFKSSCPMDLKNFPMDVQTCKLKFGSWSYGGWSLDLQMQEADISGYIPNGEWDLVGIPGKRSERFYECCKEPYPDVTFTVTMRRRMGYYLIQMYIPSLLIVILSWISFWINMDAAPARVGLGITTVLTMTTQSSGSRASLPKVSYVKAIDIWMAVCLLFVFSALLEYAAVNFVSRQHKELLRFRRKRRHHKSPMLNLFQEDEAGEGRFNFSAYGMGPACLQAKDGISVKGANNSNTTNPPPAPSKSPEEMRKLFIQRAKKIDKISRIGFPMAFLIFNMFYWIIYKIVRREDVHNQ
modifications: synthetic sequence of chimeric LGIC
percent quench of YFP fluorescence, 10 uM ach ([1]; 10 uM acetylcholine): 9.47% | percent quench of YFP fluorescence, 100 uM ach ([1]; 100 uM acetylcholine): 6.12% | percent quench of YFP fluorescence, 1 mM ach ([1]; 1 mM acetylcholine): −1.56% | percent quench of YFP fluorescence, 3 mM ach ([1]; 3 mM acetylcholine): 17.57% | fold reduced potency to acetylcholine compared to wild type receptor [2]: over 500 fold | sensitivity / potency to acetylcholine [3]: essentially insensitive | EC50 AZD-0328 [4]: no activity
